The results in this text go back to article PMC7214462.

The test system of data set [1] is LdCsm effector complex, wild type (Csm1/Cas10-Csm2-Csm3-Csm4-Csm5) (Lactobacillus delbrueckii subsp. bulgaricus ND04). The experiment in a line: EMSA. The note with it: 5 nM 5'-32P S10-60 ssDNA in cleavage buffer (composition not in material; cOA assay buffer is 50 mM Tris-Cl pH 6.8 …). On the technique in general: A gel shift assay detects complexes by their altered migration in electrophoresis.

The test system of data set [2] is LdCsm Csm3D34A (Lactobacillus delbrueckii subsp. bulgaricus ND04). Briefly: EMSA. The conditions noted are these: 100 nM effector, 500 nM PTR; 5 nM 5'-32P S10-60 ssDNA in cleavage buffer (composition not in material; cOA assay buffer is 50 mM Tris-Cl pH 6.8 …).

In turn, “ACTATAGGGAGAATAGAATGCCCCCATTATACAATATCTACGTTTTAGATGACCCCCCCC / ACGAGAACUUCAAAGCUUAGAUACCCUGGAGG / GGUGUUAAGUCUGGUUUCCCUCCAGGGUAUCUAAGCUUUGAAA [S10-60 ssDNA + S1 crRNA + CTR+1]” gave a binding signal (% of full activity) in data set [1] (100 nM LdCsm, 500 nM CTR+1) of 90.

On to “ACTATAGGGAGAATAGAATGCCCCCATTATACAATATCTACGTTTTAGATGACCCCCCCC / ACGAGAACUUCAAAGCUUAGAUACCCUGGAGG / AUAGAAUGCCCCCAUUAUACAAUAUCUACGUUUUAGAUGAAAAAAA [S10-60 ssDNA + S1 crRNA + S10 RNA (non-homologous)]”, for which the binding signal (relative to WT with non-homologous RNA) in data set [1] (100 nM LdCsm, 400 nM S10 RNA, little binding, reference) was 1.

Turning to “ACTATAGGGAGAATAGAATGCCCCCATTATACAATATCTACGTTTTAGATGACCCCCCCC / ACGAGAACUUCAAAGCUUAGAUACCCUGGAGG / GGUGUUAAGUCUGGUUUCCCUCCAGGGUAUCUAAGCUUUGAAG [S10-60 ssDNA + S1 crRNA + NTR+1]”, in data set [1] (100 nM LdCsm, 500 nM NTR+1), the binding signal (% of full activity) was 70.

As for “ACTATAGGGAGAATAGAATGCCCCCATTATACAATATCTACGTTTTAGATGACCCCCCCC / ACGAGAACUUCAAAGCUUAGAUACCCUGGAGG / GGUGUUAAGUCUGGUUUCCCUCCAGGGUAUCUAAGCUUUGAAAAAAAA [S10-60 ssDNA + S1 crRNA + CTR+6]”, the binding signal (fraction of CTR+6 complex) in data set [1] (100 nM LdCsm, 500 nM CTR+6, reference) is 1.

In data set [1] (100 nM LdCsm, 500 nM PTR), “ACTATAGGGAGAATAGAATGCCCCCATTATACAATATCTACGTTTTAGATGACCCCCCCC / ACGAGAACUUCAAAGCUUAGAUACCCUGGAGG / UGUUAAGUCUGGUUUCCCUCCAGGGUAUCUAAGCUUUGAA [S10-60 ssDNA + S1 crRNA + PTR (S1-40)]” gave a binding signal (% of CTR-LdCsm) of 55 and a binding signal (fold vs non-homologous RNA) of 2. In data set [2], this sequence returned a binding signal (fold vs non-homologous RNA) of 3.

“ACTATAGGGAGAATAGAATGCCCCCATTATACAATATCTACGTTTTAGATGACCCCCCCC / ACGAGAACUUCAAAGCUUAGAUACCCUGGAGG / UGUUAAGUCUGGUUUCCCUCCAGGGUAUCUAAGCUUUGAAAAAAAA [S10-60 ssDNA + S1 crRNA + CTR (S1-46)]”: in data set [1] (25-100 nM effector, 500 nM CTR, reference), the binding signal was 100 % of WT.
